According to paper PMC5040251, “The Structure of Treponema pallidum Tp0751 (Pallilysin) Reveals a Non-canonical Lipocalin Fold That Mediates Adhesion to Extracellular Matrix Components and Interactions with Host Cells” (PLoS Pathogens, 2016):
Where a chain is given by its changes, count along the chain named. Names may count otherwise. Ends that are not written are not given here.

B1: Tp0751_78 WT (domain or fragment)
chain: SHGNAPPAPVGGAAQTHTQPPVQTAMRIALWNRATHGEQGALQHLLAGLWIQTEISPNSGDIHPLLFFDREHAEITFSRASVQEIFLVDSAHTHRKTVSFLTRNTAISSIRRRLEVTFESHEVIHVRAVEDVARLKIGSTSMWDGQYTRYHAGPASAPSP
notes: Tp0751 (pallilysin), Treponema pallidum subsp. pallidum, Ser78 to Pro237 (C-terminus), wild type at Glu199; The methods tell vector (modified pET28a, TEV-cleavable N-terminal His6), host strain and purification only for the E199A constructs; also called wild-type Tp0751_78 WT; source: E. coli, purified
B2: Tp0751_78 E199A (Tp0751_78A) (domain or fragment, Treponema pallidum subsp. pallidum, UniProt O83732 78-237, looked up)
chain: B1 chain with E122A
notes: Tp0751 (pallilysin), Treponema pallidum subsp. pallidum, Ser78 to Pro237 (C-terminus), with E199A; The construct used for crystallization; also called pallilysin Ser78 to Pro237 E199A; not shown: His6, N-terminal, cleaved
B3: Tp0751 synthetic peptide p4 (peptide)
peptide: GGAAQTHTQPPVQTAMRIALWNRA
notes: Tp0751 (pallilysin), Treponema pallidum subsp. pallidum; its central four residues PVQT (98-101) are printed; also called peptide 4; source: synthetic peptide; not shown: His6, N-terminal, kept
B4: Tp0751 synthetic peptide p6 (peptide)
peptide: QGALQHLLAGLWIQTEISPNSGDI
notes: Tp0751 (pallilysin), Treponema pallidum subsp. pallidum; its central four residues LWIQ (126-129) are printed; also called peptide 6; source: synthetic peptide; not shown: His6, N-terminal, kept
B5: Tp0751 synthetic peptide p10 (peptide)
peptide: RKTVSFLTRNTAISSIRRRLEVTF
notes: Tp0751 (pallilysin), Treponema pallidum subsp. pallidum; Its composition equals that of the printed scrambled peptide p10scr2; also called peptide 10; source: synthetic peptide; not shown: His6, N-terminal, kept
B6: Tp0751 synthetic peptide p11 (peptide)
peptide: SIRRRLEVTFESHEVIHVRAVEDV
notes: Tp0751 (pallilysin), Treponema pallidum subsp. pallidum; shares its first 10 residues (with the arginine triplet) with p10; source: synthetic peptide; not shown: His6, N-terminal, kept

Experiments:
fibronectin [1] = test: Dose-dependent binding assay to immobilized fibronectin; conditions: plate binding to immobilized human plasma fibronectin; peptides serially diluted 1:2 from 40 to 0.625; absorbance 600 nm, three wells, representative of two independent experiments; non-linear regression, GraphPad Prism; read-out: Apparent Kd (Fn)
Procedure: (§1) Fig 3 Tp0751 lipocalin derived peptides directly bind host proteins. (A) Thirteen overlapping Tp0751 synthetic 24-mer peptides were evaluated for binding to immobilized fibrinogen, fibronectin, collagen type I, and collagen type IV. Average absorbance readings (600 nm) from three wells are presented with bars indicating standard error and the results are representative of two independent experiments. […] Average absorbance readings (600 nm) from three wells are presented with bars indicating standard error and the results are representative of two independent experiments. […] The strand colored in cyan reflects the overlap of p10 and p11. Color coded sequences of peptides p4, p6, p10, p10scr1, and p10scr2 are shown. Arginine residues in the p10 peptides are indicated by underlining.
(§2) Plasminogen-depleted human fibrinogen (Calbiochem) was purchased from VWR International. Laminin isolated from Engelbreth-Holm-Swarm murine sarcoma basement membrane and fibronectin isolated from human plasma were purchased from Sigma-Aldrich Canada Ltd. (Oakville, ON). Human collagen types I and IV (Rockland Immunochemicals, Inc.) were purchased from VWR International.
(§3) To test for binding of synthetic Tp0751 peptides p1-p13, p1scr, p6scr, p10scr1, and p10scr2 to the host proteins fibrinogen, fibronectin, laminin, collagen type I, and collagen type IV, initial binding assays were performed as described previously. For dose-dependent binding assays, recombinant proteins were serially diluted 1:2 from either 10 μM to 0.156 μm (Tp0751_78A used for crystallization and Tp0751_78 WT) or 40 μm to 0.625 μm (peptides p4, p6, p10, p11, p10scr1, and p10scr2). Average absorbance readings (600 nm) from three wells are presented with bars indicating standard error and the results are representative of two independent experiments. Plates were read at 600 nm with a BioTek enzyme-linked immunosorbent assay plate reader (Fisher Scientific, Ottawa, ON). All statistical analyses were performed using the Student’s two-tailed t-test. Non-linear regression curves were fitted and apparent dissociation constants (K d) were calculated using GraphPad Prism data analysis software (San Diego, CA).

collagen type I = test: Initial (single point) binding screen of Tp0751 peptide library to immobilized collagen type I; conditions: immobilized human collagen type I; absorbance 600 nm, three wells, two independent experiments; Student's two-tailed t-test against non-binding peptides
Procedure: as §1, §2, §3

fibrinogen = biological target: T1, fibrinogen (Homo sapiens, UniProt P02671+P02675+P02679); test: Initial (single point) binding screen of Tp0751 peptide library to immobilized fibrinogen; conditions: absorbance 600 nm, three wells, two independent experiments, Student's two-tailed t-test against non-binding peptides
T1 construct: purchased Calbiochem, purchased from VWR International
T1 sequence (P02671 20-629 limits assumed): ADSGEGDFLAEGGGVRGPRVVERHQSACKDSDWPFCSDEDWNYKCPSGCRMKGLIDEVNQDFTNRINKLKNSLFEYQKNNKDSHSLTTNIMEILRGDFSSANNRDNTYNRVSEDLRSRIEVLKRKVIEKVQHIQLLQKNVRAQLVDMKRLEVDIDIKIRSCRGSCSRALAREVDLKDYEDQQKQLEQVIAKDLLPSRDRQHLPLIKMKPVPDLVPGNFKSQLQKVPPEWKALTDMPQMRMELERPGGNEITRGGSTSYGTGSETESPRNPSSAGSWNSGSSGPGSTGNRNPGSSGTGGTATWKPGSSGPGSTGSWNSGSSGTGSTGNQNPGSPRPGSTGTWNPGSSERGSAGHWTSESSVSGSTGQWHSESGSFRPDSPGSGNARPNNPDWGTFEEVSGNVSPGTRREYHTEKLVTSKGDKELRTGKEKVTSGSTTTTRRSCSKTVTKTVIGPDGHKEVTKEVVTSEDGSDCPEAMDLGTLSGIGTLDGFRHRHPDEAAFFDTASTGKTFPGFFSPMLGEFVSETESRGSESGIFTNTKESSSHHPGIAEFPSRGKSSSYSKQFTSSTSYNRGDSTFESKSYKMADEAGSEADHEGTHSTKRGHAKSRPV
T1 sequence (P02675 31-491): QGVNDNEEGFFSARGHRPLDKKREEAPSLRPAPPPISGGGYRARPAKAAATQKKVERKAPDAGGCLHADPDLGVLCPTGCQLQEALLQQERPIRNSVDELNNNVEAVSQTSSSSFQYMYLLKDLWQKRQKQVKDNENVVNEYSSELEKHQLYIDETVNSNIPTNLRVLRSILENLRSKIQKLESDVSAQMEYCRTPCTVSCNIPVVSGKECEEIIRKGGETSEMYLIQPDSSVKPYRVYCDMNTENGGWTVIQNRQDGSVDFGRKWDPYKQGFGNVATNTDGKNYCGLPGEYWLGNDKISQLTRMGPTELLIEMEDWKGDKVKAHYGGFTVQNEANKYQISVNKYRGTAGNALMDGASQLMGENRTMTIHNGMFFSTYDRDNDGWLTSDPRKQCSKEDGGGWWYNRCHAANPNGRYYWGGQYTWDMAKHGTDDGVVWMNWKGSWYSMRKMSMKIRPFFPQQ
T1 sequence (P02679 27-433 limits assumed): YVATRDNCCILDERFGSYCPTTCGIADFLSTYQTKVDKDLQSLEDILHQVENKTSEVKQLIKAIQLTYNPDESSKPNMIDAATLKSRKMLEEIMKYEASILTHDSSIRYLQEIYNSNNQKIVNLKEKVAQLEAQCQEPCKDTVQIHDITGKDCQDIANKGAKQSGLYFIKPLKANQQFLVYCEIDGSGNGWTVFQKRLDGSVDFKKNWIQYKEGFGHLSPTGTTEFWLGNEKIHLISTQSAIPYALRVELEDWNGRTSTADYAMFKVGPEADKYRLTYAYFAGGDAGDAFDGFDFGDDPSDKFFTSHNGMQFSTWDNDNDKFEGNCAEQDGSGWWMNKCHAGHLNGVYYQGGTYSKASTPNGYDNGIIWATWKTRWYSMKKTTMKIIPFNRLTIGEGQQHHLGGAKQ
Procedure: as §1, §2, §3

fibronectin [2] = test: Initial (single point) binding screen of Tp0751 peptide library to immobilized fibronectin; design: species or system human; conditions: absorbance 600 nm, three wells, two independent experiments, Student's two-tailed t-test against non-binding peptides
Procedure: as §1, §2, §3

collagen type IV = test: Initial (single point) binding screen of Tp0751 peptide library to immobilized collagen type IV; conditions: immobilized human collagen type IV; absorbance 600 nm, three wells, two independent experiments; Student's two-tailed t-test against non-binding peptides
Procedure: as §1, §2, §3

[3] = biological target: fibronectin isolated from human plasma (human); test: ELISA; dose-dependent plate binding assay on immobilised fibrinogen or fibronectin; His6-tagged synthetic peptides serially diluted 1:2 from 40 μM to 0.625 μM; absorbance at 600 nm; apparent Kd by non-linear regression (GraphPad Prism)
[4] = biological target: T2, plasminogen-depleted human fibrinogen (human, UniProt P02671-2 20-644; P02675 31-491; P02679-2 27-437); test: ELISA; dose-dependent plate binding assay on immobilised fibrinogen; recombinant Tp0751 proteins serially diluted 1:2 from 10 μM to 0.156 μM; absorbance at 600 nm; apparent Kd by non-linear regression (GraphPad Prism); conditions: both partners purified
T2 construct: fibrinogen alpha chain, human; fibrinogen beta chain, human; fibrinogen gamma chain, human; also called Fg; source: bought: Calbiochem (through VWR International)
T2 sequence (looked up) 1: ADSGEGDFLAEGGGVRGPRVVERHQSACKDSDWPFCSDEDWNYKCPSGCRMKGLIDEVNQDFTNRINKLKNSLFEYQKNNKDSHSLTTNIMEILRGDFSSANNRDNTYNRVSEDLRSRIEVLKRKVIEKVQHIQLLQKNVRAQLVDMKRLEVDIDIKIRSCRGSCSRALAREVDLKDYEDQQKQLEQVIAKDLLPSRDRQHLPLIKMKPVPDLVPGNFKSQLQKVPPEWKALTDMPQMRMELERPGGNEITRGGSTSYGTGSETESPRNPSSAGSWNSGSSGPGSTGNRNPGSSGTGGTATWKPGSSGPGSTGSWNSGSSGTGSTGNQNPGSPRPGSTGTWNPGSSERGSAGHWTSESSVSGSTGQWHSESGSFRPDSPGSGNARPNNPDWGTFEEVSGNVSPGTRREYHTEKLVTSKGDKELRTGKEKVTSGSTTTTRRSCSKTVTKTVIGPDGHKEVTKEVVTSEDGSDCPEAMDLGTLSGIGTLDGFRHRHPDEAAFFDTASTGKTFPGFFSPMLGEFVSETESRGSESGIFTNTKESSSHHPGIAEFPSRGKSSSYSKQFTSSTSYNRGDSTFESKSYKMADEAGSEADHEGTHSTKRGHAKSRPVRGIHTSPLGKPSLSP
T2 sequence (looked up) 2: T1 sequence (P02675 31-491)
T2 sequence (looked up) 3: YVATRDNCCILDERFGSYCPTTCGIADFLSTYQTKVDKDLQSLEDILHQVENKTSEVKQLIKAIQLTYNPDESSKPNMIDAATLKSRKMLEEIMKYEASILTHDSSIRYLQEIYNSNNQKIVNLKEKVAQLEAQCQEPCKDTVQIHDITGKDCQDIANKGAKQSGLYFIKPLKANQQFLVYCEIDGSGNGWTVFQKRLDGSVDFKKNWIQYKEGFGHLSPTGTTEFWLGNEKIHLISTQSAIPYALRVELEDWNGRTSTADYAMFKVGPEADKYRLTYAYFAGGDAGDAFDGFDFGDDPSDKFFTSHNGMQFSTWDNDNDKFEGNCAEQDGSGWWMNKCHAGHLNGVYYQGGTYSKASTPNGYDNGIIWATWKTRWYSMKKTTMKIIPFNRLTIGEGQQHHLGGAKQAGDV

[5] = biological target: T2, plasminogen-depleted human fibrinogen; test: ELISA; dose-dependent plate binding assay on immobilised fibrinogen or fibronectin; His6-tagged synthetic peptides serially diluted 1:2 from 40 μM to 0.625 μM; absorbance at 600 nm; apparent Kd by non-linear regression (GraphPad Prism); conditions: both partners purified

Molecule | Kd [3] [µM] | Kd [5] [µM] | also measured
HHHHHHTSRVKLTISFERSLVNRTRTARFI [p10scr1] | – | – | Kd (fibronectin [1]): 1.3 ± 0.1 µM; Binding to collagen I in initial binding screen (collagen type I): enhanced binding relative to p10; Binding to fibrinogen in initial binding screen (fibrinogen): enhanced binding relative to p10; Binding to fibronectin in initial binding screen (fibronectin [2]): enhanced binding relative to p10; Binding to collagen IV in initial binding screen (collagen type IV): enhanced binding relative to p10
Tp0751 synthetic peptide p4 (from UniProt O83732 88-111) | 2.4 | – | –
Tp0751 synthetic peptide p6 (from UniProt O83732 116-139) | 4.5 | – | –
Tp0751 synthetic peptide p11 (from UniProt O83732 186-209) | 5.8 | – | –
VAREFNKSRTILFRTSVTRLSTRI [second scrambled version of Tp0751 peptide 10 (p10scr2)] | 7.9 | – | –
B1 | – | – | Kd [4]: 6.1 ± 1.7 µM
B2 | – | – | Kd [4]: 2 ± 0.4 µM
B3 | – | 6.9 ± 0.4 | –
B4 | – | 10.5 ± 2 | –
B5 | – | 1.6 ± 0.1 | –
B6 | – | 9.2 ± 1 | –
